{"source": "paper PMC4132714", "about": "“Phospho-dependent and phospho-independent interactions of the helicase UPF1 with the NMD factors SMG5–SMG7 and SMG6” (Nucleic Acids Research, 2014)", "binders": {"B1": {"name": "GST-UPF1CT1 (residues 1052–1118) phosphorylated in vitro by SMG1 wt (domain or fragment, human, UniProt Q92900-2 1052-1118, looked up)", "chain": "{GST}-GALTQGYISMSQPSQMSQPGLSQPELSQDSYLGDEFKSQIDVALSQDSTYQGERAYQHGGVTGLSQY", "modifications": "also: phosphorylated in vitro by SMG1 at SQ motifs, sites not given here", "notes": "source: E. coli, purified, then phosphorylated in vitro with SMG1 wt"}, "B2": {"name": "GST-UPF1CT2 (residues 1070–1118) phosphorylated in vitro by SMG1 wt (domain or fragment, human, UniProt Q92900-2 1070-1118, looked up)", "chain": "PGLSQPELSQDSYLGDEFKSQIDVALSQDSTYQGERAYQHGGVTGLSQY", "modifications": "not fully specified (N-terminus); also: phosphorylated in vitro by SMG1, sites not given here, GST fusion partner not in chain", "notes": "as for B1"}, "B3": {"name": "GST-UPF1CT4 (residues 1086–1118) phosphorylated in vitro by SMG1 wt (domain or fragment, human, UniProt Q92900-2 1086-1118, looked up)", "chain": "{GST}-EFKSQIDVALSQDSTYQGERAYQHGGVTGLSQY", "modifications": "also: phosphorylated in vitro by SMG1 at SQ motifs, sites not given here", "notes": "as for B1"}, "B4": {"name": "GST-UPF1fl, unphosphorylated (mock-treated with SMG1 KD or not treated) (natural protein, human, UniProt Q92900-2 1-1118, looked up)", "chain": "MSVEAYGPSSQTLTFLDTEEAELLGADTQGSEFEFTDFTLPSQTQTPPGGPGGPGGGGAGGPGGAGAGAAAGQLDAQVGPEGILQNGAVDDSVAKTSQLLAELNFEEDEEDTYYTKDLPIHACSYCGIHDPACVVYCNTSKKWFCNGRGNTSGSHIVNHLVRAKCKEVTLHKDGPLGETVLECYNCGCRNVFLLGFIPAKADSVVVLLCRQPCASQSSLKDINWDSSQWQPLIQDRCFLSWLVKIPSEQEQLRARQITAQQINKLEELWKENPSATLEDLEKPGVDEEPQHVLLRYEDAYQYQNIFGPLVKLEADYDKKLKESQTQDNITVRWDLGLNKKRIAYFTLPKTDSDMRLMQGDEICLRYKGDLAPLWKGIGHVIKVPDNYGDEIAIELRSSVGAPVEVTHNFQVDFVWKSTSFDRMQSALKTFAVDETSVSGYIYHKLLGHEVEDVIIKCQLPKRFTAQGLPDLNHSQVYAVKTVLQRPLSLIQGPPGTGKTVTSATIVYHLARQGNGPVLVCAPSNIAVDQLTEKIHQTGLKVVRLCAKSREAIDSPVSFLALHNQIRNMDSMPELQKLQQLKDETGELSSADEKRYRALKRTAERELLMNADVICCTCVGAGDPRLAKMQFRSILIDESTQATEPECMVPVVLGAKQLILVGDHCQLGPVVMCKKAAKAGLSQSLFERLVVLGIRPIRLQVQYRMHPALSAFPSNIFYEGSLQNGVTAADRVKKGFDFQWPQPDKPMFFYVTQGQEEIASSGTSYLNRTEAANVEKITTKLLKAGAKPDQIGIITPYEGQRSYLVQYMQFSGSLHTKLYQEVEIASVDAFQGREKDFIILSCVRANEHQGIGFLNDPRRLNVALTRARYGVIIVGNPKALSKQPLWNHLLNYYKEQKVLVEGPLNNLRESLMQFSKPRKLVNTINPGARFMTTAMYDAREAIIPGSVYDRSSQGRPSSMYFQTHDQIGMISAGPSHVAAMNIPIPFNLVMPPMPPPGYFGQANGPAAGRGTPKGKTGRGGRQKNRFGLPGPSQTNLPNSQASQDVASQPFSQGALTQGYISMSQPSQMSQPGLSQPELSQDSYLGDEFKSQIDVALSQDSTYQGERAYQHGGVTGLSQY", "notes": "UPF1, human; also called full-length GST-UPF1; unphosphorylated UPF1"}, "B5": {"name": "GST-UPF1fl phosphorylated in vitro by SMG1 wt (natural protein, human, UniProt Q92900-2 1-1118, looked up)", "chain": "MSVEAYGPSSQTLTFLDTEEAELLGADTQGSEFEFTDFTLPSQTQTPPGGPGGPGGGGAGGPGGAGAGAAAGQLDAQVGPEGILQNGAVDDSVAKTSQLLAELNFEEDEEDTYYTKDLPIHACSYCGIHDPACVVYCNTSKKWFCNGRGNTSGSHIVNHLVRAKCKEVTLHKDGPLGETVLECYNCGCRNVFLLGFIPAKADSVVVLLCRQPCASQSSLKDINWDSSQWQPLIQDRCFLSWLVKIPSEQEQLRARQITAQQINKLEELWKENPSATLEDLEKPGVDEEPQHVLLRYEDAYQYQNIFGPLVKLEADYDKKLKESQTQDNITVRWDLGLNKKRIAYFTLPKTDSDMRLMQGDEICLRYKGDLAPLWKGIGHVIKVPDNYGDEIAIELRSSVGAPVEVTHNFQVDFVWKSTSFDRMQSALKTFAVDETSVSGYIYHKLLGHEVEDVIIKCQLPKRFTAQGLPDLNHSQVYAVKTVLQRPLSLIQGPPGTGKTVTSATIVYHLARQGNGPVLVCAPSNIAVDQLTEKIHQTGLKVVRLCAKSREAIDSPVSFLALHNQIRNMDSMPELQKLQQLKDETGELSSADEKRYRALKRTAERELLMNADVICCTCVGAGDPRLAKMQFRSILIDESTQATEPECMVPVVLGAKQLILVGDHCQLGPVVMCKKAAKAGLSQSLFERLVVLGIRPIRLQVQYRMHPALSAFPSNIFYEGSLQNGVTAADRVKKGFDFQWPQPDKPMFFYVTQGQEEIASSGTSYLNRTEAANVEKITTKLLKAGAKPDQIGIITPYEGQRSYLVQYMQFSGSLHTKLYQEVEIASVDAFQGREKDFIILSCVRANEHQGIGFLNDPRRLNVALTRARYGVIIVGNPKALSKQPLWNHLLNYYKEQKVLVEGPLNNLRESLMQFSKPRKLVNTINPGARFMTTAMYDAREAIIPGSVYDRSSQGRPSSMYFQTHDQIGMISAGPSHVAAMNIPIPFNLVMPPMPPPGYFGQANGPAAGRGTPKGKTGRGGRQKNRFGLPGPSQTNLPNSQASQDVASQPFSQGALTQGYISMSQPSQMSQPGLSQPELSQDSYLGDEFKSQIDVALSQDSTYQGERAYQHGGVTGLSQY", "modifications": "phosphorylated by SMG1 at SQ and TQ motifs present exclusively in the N- and C-terminal tails; detected sites include Thr28, Ser1078, Ser1096 and Ser1116", "notes": "UPF1, human; also called phospho-UPF1; phospho-UPF1fl"}, "B6": {"name": "GST-UPF1CT (residues 917–1118) phosphorylated in vitro by SMG1 wt (domain or fragment, human, UniProt Q92900-2 917-1118, looked up)", "chain": "RKLVNTINPGARFMTTAMYDAREAIIPGSVYDRSSQGRPSSMYFQTHDQIGMISAGPSHVAAMNIPIPFNLVMPPMPPPGYFGQANGPAAGRGTPKGKTGRGGRQKNRFGLPGPSQTNLPNSQASQDVASQPFSQGALTQGYISMSQPSQMSQPGLSQPELSQDSYLGDEFKSQIDVALSQDSTYQGERAYQHGGVTGLSQY", "modifications": "phosphorylated in vitro by SMG1 at SQ motifs; sites not stated for this construct", "notes": "also called C-terminal tail of UPF1; source: E. coli BL21 (DE3) STAR pRARE, purified, then phosphorylated in vitro with SMG1 wt"}}, "key": {"[1]": {"target": "T1, SMG5–7 TPR complex (heterodimer of SMG5 TPR and SMG7 TPR) (human, UniProt Q9UPR3 1-803; Q92540 1-499, Δ408–632)", "T1 construct": "SMG5, human, residues 1–803 with the predicted insertion 408–632 removed (SMG5 TPR); SMG7, human, residues 1–499 (SMG7 TPR); Written SMG5-His and His-(TEV)-SMG7 in the methods; also called SMG5–SMG7; SMG5–7 TPR heterodimer; not shown: His, N-terminal, cleaved; copies: 1 + 1", "T1 sequence (looked up) 1": "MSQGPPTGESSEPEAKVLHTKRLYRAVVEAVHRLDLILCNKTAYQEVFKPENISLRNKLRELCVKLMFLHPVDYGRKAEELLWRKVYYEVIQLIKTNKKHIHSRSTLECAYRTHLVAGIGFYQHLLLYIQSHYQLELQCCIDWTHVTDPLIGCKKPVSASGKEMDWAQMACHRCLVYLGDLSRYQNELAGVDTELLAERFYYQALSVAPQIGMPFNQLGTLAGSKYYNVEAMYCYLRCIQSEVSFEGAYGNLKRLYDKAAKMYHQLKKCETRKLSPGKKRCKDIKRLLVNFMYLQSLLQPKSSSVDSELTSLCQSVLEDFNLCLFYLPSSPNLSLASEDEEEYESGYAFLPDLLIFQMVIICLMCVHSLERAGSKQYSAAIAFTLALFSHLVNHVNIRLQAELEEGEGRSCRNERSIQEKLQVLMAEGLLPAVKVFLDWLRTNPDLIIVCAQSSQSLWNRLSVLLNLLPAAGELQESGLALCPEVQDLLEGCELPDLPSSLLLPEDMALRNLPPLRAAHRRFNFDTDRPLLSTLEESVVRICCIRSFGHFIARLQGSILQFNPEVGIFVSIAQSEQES", "T1 sequence (looked up) 2": "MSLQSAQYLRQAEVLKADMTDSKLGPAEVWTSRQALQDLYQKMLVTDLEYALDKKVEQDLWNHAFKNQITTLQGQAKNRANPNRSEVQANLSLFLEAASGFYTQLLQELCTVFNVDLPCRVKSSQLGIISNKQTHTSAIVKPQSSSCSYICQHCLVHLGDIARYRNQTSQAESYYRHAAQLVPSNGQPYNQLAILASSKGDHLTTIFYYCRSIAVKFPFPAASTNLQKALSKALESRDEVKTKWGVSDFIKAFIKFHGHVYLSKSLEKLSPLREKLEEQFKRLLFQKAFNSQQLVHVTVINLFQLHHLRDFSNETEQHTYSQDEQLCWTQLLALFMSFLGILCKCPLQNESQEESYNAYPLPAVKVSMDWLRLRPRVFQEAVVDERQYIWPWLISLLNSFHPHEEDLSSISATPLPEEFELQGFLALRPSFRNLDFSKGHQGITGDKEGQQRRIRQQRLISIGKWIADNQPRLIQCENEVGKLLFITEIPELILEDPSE", "assay": "pull-down; GST pull-down, one prey: ∼2 μg GST-tagged bait with equal amount of untagged prey in 20 mM HEPES pH 7.5, 125 mM NaCl, 2% glycerol, 2 mM DTT (45 μl), 45 min at room temperature; glutathione–Sepharose beads in 20 mM HEPES pH 7.5, 150 mM NaCl, 10% glycerol, 2 mM DTT, 0.1% NP-40, 1 h at 4°C; eluted with glutathione; SDS-PAGE, Coomassie; GST-UPF1 constructs pre-treated with SMG1 wt or SMG1 KD where indicated", "settings": "both partners purified"}, "[2]": {"target": "T2, SMG6fl (HA-Flag tagged, purified from HEK 293T cells) (human, UniProt Q86US8 1-1419)", "T2 construct": "SMG6, human, full length (SMG6CT ends at residue 1419)", "T2 sequence (Q86US8 whole entry)": "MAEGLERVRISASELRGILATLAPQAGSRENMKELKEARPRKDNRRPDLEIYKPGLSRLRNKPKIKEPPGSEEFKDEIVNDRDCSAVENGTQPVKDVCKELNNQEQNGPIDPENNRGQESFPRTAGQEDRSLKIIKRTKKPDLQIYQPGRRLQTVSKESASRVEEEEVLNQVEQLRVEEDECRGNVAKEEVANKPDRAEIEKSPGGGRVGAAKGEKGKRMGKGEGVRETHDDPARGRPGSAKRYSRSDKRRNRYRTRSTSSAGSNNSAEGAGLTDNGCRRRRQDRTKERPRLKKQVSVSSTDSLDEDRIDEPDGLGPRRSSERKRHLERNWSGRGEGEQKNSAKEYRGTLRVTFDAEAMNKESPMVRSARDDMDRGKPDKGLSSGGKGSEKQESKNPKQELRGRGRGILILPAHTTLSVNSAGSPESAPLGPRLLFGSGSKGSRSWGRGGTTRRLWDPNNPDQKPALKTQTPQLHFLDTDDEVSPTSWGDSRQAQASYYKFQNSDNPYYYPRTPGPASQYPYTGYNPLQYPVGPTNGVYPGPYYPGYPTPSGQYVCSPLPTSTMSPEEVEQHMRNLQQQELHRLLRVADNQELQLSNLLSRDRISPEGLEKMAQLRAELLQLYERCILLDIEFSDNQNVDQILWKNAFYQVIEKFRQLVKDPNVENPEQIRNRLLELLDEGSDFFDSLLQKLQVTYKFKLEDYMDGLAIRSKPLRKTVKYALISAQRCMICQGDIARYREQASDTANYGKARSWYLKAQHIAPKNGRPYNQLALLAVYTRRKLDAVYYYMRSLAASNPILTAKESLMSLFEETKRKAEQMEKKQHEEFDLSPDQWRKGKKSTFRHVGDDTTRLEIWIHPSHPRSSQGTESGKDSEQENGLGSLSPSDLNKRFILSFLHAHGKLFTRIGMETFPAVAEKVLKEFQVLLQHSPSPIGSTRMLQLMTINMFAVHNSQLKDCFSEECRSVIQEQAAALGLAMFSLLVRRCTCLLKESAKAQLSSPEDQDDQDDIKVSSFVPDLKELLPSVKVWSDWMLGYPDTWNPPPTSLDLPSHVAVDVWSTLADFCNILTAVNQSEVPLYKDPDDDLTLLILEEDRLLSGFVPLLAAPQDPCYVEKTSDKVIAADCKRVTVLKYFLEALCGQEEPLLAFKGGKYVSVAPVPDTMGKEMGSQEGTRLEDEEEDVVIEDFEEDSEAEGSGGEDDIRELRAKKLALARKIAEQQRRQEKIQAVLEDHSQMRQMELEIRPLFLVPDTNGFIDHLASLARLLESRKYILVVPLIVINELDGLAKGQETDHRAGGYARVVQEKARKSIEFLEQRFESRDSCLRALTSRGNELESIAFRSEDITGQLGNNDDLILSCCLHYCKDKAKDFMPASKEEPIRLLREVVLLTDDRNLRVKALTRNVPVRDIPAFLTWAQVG", "assay": "pull-down; GST pull-down as in Figure 1C with GST-UPF1fl as bait and several preys added together (SMG6fl, UPF2, UPF3, EJC; or SMG6fl and SMG5–7 TPR after treatment with SMG1 wt or KD); Coomassie", "settings": "both partners purified"}}, "note": "Ends that are not written are not given here."}
{"binder": "B1", "values": [{"measurement": "binding result", "setting": "[1]", "value": "binds"}]}
{"binder": "B2", "values": [{"measurement": "binding result", "setting": "[1]", "value": "binds"}]}
{"binder": "B3", "values": [{"measurement": "binding result", "setting": "[1]", "value": "binds"}]}
{"binder": "B4", "values": [{"measurement": "binding result", "setting": "[2]", "value": "binds"}]}
{"binder": "B5", "values": [{"measurement": "binding result", "setting": "[2]", "value": "binds"}]}
{"binder": "B6", "values": [{"measurement": "binding result", "setting": "[1]", "value": "binds"}]}
